Source: EP1378570B1

Target: murine Flk-1 receptor tyrosine kinase (fetal liver kinase 1), full-length, transiently expressed in COS-1 cells from pCMV-Flk-1 (mouse) (UniProt P35918)
Assay: competition of unlabeled VEGF (0 to 7 x 10^-9) with 10 pM 125I-VEGF on COS-1 cells expressing Flk-1; analysis by Munson and Rodbard

Sequence of UniProt P35918 (P35918 other isoform, or with tags, fused parts or gaps limits assumed): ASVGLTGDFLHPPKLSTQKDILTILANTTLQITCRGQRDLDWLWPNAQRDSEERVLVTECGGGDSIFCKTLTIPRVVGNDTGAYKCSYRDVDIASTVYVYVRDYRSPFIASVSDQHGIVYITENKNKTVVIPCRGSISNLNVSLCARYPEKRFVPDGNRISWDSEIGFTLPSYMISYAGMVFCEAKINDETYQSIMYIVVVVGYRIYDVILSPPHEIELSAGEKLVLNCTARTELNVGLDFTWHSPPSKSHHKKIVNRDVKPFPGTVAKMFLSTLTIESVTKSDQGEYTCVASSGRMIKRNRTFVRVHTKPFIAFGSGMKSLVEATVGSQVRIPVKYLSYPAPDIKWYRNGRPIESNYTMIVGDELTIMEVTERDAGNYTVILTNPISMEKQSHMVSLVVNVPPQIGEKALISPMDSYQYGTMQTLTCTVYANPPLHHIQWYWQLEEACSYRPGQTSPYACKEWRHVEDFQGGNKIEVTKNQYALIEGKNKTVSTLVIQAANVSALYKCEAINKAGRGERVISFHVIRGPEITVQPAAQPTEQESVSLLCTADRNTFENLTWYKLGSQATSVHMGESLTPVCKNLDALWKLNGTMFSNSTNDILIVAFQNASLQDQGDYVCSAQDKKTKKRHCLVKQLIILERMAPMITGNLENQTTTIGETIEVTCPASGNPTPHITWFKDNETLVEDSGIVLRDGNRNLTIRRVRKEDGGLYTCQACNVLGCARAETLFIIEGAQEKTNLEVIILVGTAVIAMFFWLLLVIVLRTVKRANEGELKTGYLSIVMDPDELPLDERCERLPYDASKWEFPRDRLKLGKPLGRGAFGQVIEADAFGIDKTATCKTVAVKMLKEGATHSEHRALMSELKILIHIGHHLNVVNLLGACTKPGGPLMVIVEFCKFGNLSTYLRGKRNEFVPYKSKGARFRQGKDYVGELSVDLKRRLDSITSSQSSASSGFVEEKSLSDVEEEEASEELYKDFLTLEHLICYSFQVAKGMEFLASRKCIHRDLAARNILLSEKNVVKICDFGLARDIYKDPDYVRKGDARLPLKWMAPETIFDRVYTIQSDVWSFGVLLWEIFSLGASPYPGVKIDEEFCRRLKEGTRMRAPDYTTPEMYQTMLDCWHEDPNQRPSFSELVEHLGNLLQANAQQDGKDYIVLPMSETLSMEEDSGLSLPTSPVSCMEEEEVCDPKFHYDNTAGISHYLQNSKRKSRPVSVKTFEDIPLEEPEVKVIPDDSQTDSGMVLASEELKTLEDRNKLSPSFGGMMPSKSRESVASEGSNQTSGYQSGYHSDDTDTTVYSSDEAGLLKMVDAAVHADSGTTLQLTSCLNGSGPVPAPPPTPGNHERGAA

Kd: 0.1 nM
Substance: unlabeled VEGF (164 amino acid form), partially purified from conditioned media of COS-1 cells transiently expressing VEGF (from UniProt Q00731 1-392) (ligand)
